These results are taken from publication PMC4329188, “Expression, purification, crystallization, and preliminary X-ray crystallographic studies of the human adiponectin receptors, AdipoR1 and AdipoR2” (Journal of Structural and Functional Genomics, 2015).

The target in the test is T1, purified AdipoR1Δ88 (human adiponectin receptor 1, residues 89–375), as used for SPR and antibody screening (human, UniProt Q96A54 89-375).
T1 construct: adiponectin receptor 1 (AdipoR1), human, residues 89-375 (N-terminally truncated mutant Δ88); Same construct as m1; SDS-denatured in the dot blot; source: Trichoplusia ni (High Five) insect cells, baculovirus; purified; reconstituted into liposomes for SPR and ELISA
T1 sequence (looked up): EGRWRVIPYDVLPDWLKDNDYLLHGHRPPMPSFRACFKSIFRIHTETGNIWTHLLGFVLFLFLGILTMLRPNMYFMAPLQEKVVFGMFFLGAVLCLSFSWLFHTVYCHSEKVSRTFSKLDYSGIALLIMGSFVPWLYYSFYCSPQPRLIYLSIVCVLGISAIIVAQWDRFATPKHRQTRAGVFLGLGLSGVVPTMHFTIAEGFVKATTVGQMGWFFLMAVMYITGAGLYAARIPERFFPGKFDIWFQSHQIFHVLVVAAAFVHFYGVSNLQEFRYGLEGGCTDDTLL
Nature of the test: SPR; purified AdipoR1Δ88 reconstituted into liposomes (egg yolk PC, biotinyl-PE) and immobilised on a sensor chip SA; osmotin 0.5–8 μM as analyte; Biacore T200. The conditions noted are these: both partners purified.

B1: osmotin (ligand)
chain: ATIEVRNNCPYTVWAASTPIGGGRRLDRGQTWVINAPRGTKMARVWGRTNCNFNAAGRGTCQTGDCGGVLQCTGWGKPPNTLAEYALDQFSGLDFWDISLVDGFNIPMTFAPTNPSGGKCHAIHCTANINGECPRELRVPGGCNNPCTTFGGQQYCCTQGPCGPTFFSKFFKQRCPDAYSYPQDDPTSTFTCPGGSTNYRVIFCPNGQAHPNFPLEMPGSDEVAK
As to B1, binding was put at a Kd of 700 nM.
